Legend:
[1] = Bioluminescence emission spectrum on addition of CaCl2 (JASCO FP-6500, excitation source off); format: physicochemical; settings: 0.1 ml of 50 mM CaCl2 added to 1 ml of 50 mM Tris-HCl (pH 7.6), 0.02 mg protein
Experimental: Bioluminescence emission spectra of the recombinant clytin-ESNA obtained in EXAMPLE 4, 5) were measured in a quartz cell having a 10 mm optical path under the given conditions (band width for emission/excitation: 20 nm, response: 0.5 sec, scan speed: 2000 nm/min) using a fluorescence spectrophotometer (JASCO FP-6500) with the excitation source turned off.

[2] = Luminescence pattern triggered by addition of calcium (luminescence plate reader Centro LB960); format: biochemical
Experimental: The luminescence activity of the recombinant clytin-ESNA of EXAMPLE 4 was measured as follows. After mixing 2-mercaptoethanol (1 μl) and substrate coelenterazine (1 μg/μl dissolved in ethanol) with 30 mM Tris-HCl (pH 7.6) containing 10 mM EDTA, the recombinant apoclytin-ESNA at each purification step was added to the mixture. The reaction was carried out on ice (4° C.) for 2 hours to regenerate recombinant clytin-ESNA. The luminescence reaction was triggered by adding a 50 mM calcium solution (100 μl/well) to 1 μl of this regenerated recombinant clytin-ESNA solution. The luminescence activity was measured for 10 seconds using a luminescence plate reader Centro LB960 (manufactured by Berthold) and expressed in terms of the maximum luminescence intensity (Imax).
In order to compare the luminescence properties between the recombinant clytin-ESNA (CLI-ESNA) obtained in EXAMPLE 5 and other holoproteins (aequorin (AQ)), clytin-I (CL-I), clytin-II (CL-II)) and obelin (Ob)), the luminescence patterns triggered by the addition of calcium were compared.
The luminescence patterns of CLI-ESNA, AQ, CL-I, CL-II and Ob were measured as follows. […] The luminescence reaction was initiated by adding 100 μl/well of a 50 mM calcium solution to this reconstitution solution. […]

B1: recombinant clytin-ESNA: Holoprotein (calcium-binding photoprotein) regenerated from recombinant apoclytin-ESNA (SEQ ID NO: 2/6) and coelenterazine (protein)
chain: VKLRPNFDNPKWVNRHKFMFNFLDINGDGKITLDEIVSKASDDICAKLGATPEQTKRHQDAVEAFFKKIGMDYGKEVEFPAFVDGWKELANYDLKLWSQNKKSLIRDWGDAVFDIFDKDGSGSISLDEWKAYGRISGICPSDEDAEKTFKHCDLDNSGKLDVDEMTRQHLGFWYTLDPTSDGLYGNFVP
modifications: coelenterazine
[1]
  bioluminescence emission maximum wavelength: 470 nm
[2]; 100 μl/well of 50 mM calcium solution, measured for 10 seconds, as compared to AQ, Cl-I, Ob
  decay pattern of the luminescence patterns: rapid decay pattern
[2]; compared with Cl-I, luminescence triggered by calcium
  S/N ratio: higher S/N ratio than Cl-I

From US8772452B2, “Calcium-binding photoprotein” (JNC Corporation, priority 2009, dated 2014)
